Data: PMC4915166

Molecular target: gp91^phox, the catalytic subunit of NADPH oxidase (Nox2) (mouse (endogenous in mouse microglia)) (UniProt Q61093)
Sequence (Q61093 whole entry): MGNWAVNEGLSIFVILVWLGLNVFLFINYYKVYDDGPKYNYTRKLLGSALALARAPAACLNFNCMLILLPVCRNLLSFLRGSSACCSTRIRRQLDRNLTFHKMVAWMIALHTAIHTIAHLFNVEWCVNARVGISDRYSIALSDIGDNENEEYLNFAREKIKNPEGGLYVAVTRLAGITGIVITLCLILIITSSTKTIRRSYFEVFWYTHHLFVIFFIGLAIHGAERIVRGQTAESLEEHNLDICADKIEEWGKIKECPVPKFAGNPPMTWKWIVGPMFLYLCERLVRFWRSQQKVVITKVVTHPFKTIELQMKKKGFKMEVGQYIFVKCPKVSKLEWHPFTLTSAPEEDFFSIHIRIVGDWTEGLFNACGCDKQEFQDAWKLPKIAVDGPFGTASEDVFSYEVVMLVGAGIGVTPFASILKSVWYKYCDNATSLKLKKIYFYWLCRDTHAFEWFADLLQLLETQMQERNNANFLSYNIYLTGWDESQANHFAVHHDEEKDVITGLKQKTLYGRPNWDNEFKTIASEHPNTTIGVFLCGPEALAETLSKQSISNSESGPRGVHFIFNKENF

extracellular superoxide released by mouse microglia (SOD-inhibitable WST-1 reduction), 1.0 μM peptide, increase over the BSA control (% increase compared to the BSA control): 129
Substance: A29-V40 α-Syn peptide (WT, unlabeled, purity >98 %) (from UniProt P37840 29-40)
